Patent US20240082313A1, “PHARMACEUTICAL COMPOSITIONS AND THEIR METHODS OF USE” (The Trustees of Indiana University, priority 2021, published 2024)

B1: vinculin: vinculin recombinant protein (protein, UniProt Q64727 1-1066, looked up)
Vinculin: MPVFHTRTIESILEPVAQQISHLVIMHEEGEVDGKAIPDLTAPVAAVQAAVSNLVRVGKETVQTTEDQILKRDMPPAFIKVENACTKLVQAAQMLQSDPYSVPARDYLIDGSRGILSGTSDLLLTFDEAEVRKIIRVCKGILEYLTVAEVVETMEDLVTYTKNLGPGMTKMAKMIDERQQELTHQEHRVMLVNSMNTVKELLPVLISAMKIFVTTKNSKNQGIEEALKNRNFTVEKMSAEINEIIRVLQLTSWDEDAWASKDTEAMKRALASIDSKLNQAKGWLRDPNASPGDAGEQAIRQILDEAGKVGELCAGKERREILGTCKMLGQMTDQVADLRARGQGASPVAMQKAQQVSQGLDVLTAKVENAARKLEAMTNSKQSIAKKIDAAQNWLADPNGGPEGEEQIRGALAEARKIAELCDDPKERDDILRSLGEIAALTSKLGDLRRQGKGDSPEARALAKQVATALQNLQTKTNRAVANSRPAKAAVHLEGKIEQAQRWIDNPTVDDRGVGQAAIRGLVAEGHRLANVMMGPYRQDLLAKCDRVDQLTAQLADLAARGEGESPQARALASQLQDSLKDLKAQMQEAMTQEVSDVFSDTTTPIKLLAVAATAPPDAPNREEVFDERAANFENHSGRLGATAEKAAAVGTANKSTVEGIQASVKTARELTPQVISAARILLRNPGNQAAYEHFETMKNQWIDNVEKMTGLVDEAIDTKSLLDASEEAIKKDLDKCKVAMANIQPQMLVAGATSIARRANRILLVAKREVENSEDPKFREAVKAASDELSKTISPMVMDAKAVAGNISDPGLQKSFLDSGYRILGAVAKVREAFQPQEPDFPPPPPDLEQLRLTDELAPPKPPLPEGEVPPPRPPPPEEKDEEFPEQKAGEVINQPMMMAARQLHDEARKWSSKGNDIIAAAKRMALLMAEMSRLVRGGSGTKRALIQCAKDIAKASDEVTRLAKEVAKQCTDKRIRTNLLQVCERIPTISTQLKILSTVKATMLGRTNISDEESEQATEMLVHNAQNLMQSVKETVREAEAASIKIRTDAGFTLRWVRKTPWYQ
B2: enolase 1: enolase 1 recombinant protein (protein, UniProt P17182 2-434, looked up)
Alpha-enolase: SILRIHAREIFDSRGNPTVEVDLYTAKGLFRAAVPSGASTGIYEALELRDNDKTRFMGKGVSQAVEHINKTIAPALVSKKVNVVEQEKIDKLMIEMDGTENKSKFGANAILGVSLAVCKAGAVEKGVPLYRHIADLAGNPEVILPVPAFNVINGGSHAGNKLAMQEFMILPVGASSFREAMRIGAEVYHNLKNVIKEKYGKDATNVGDEGGFAPNILENKEALELLKTAIAKAGYTDQVVIGMDVAASEFYRSGKYDLDFKSPDDPSRYITPDQLADLYKSFVQNYPVVSIEDPFDQDDWGAWQKFTASAGIQVVGDDLTVTNPKRIAKAASEKSCNCLLLKVNQIGSVTESLQACKLAQSNGWGVMVSHRSGETEDTFIADLVVGLCTGQIKTGAPCRSERLAKYNQILRIEEELGSKAKFAGRSFRNPLAK

Legend:
[1] = tested on: EO771 mammary tumor cells; test: TRANSWELL invasion assay; format: cell-based, mouse; details: inhibitor applied with iTS CM
Method: (§1) Invasion assay. The invasion capacity of cancer cells was determined using a 24-well plate, TRANSWELL® chambers (Thermo Fisher Scientific, Waltham, MA, USA) with […] pore size and MATRIGEL™. Cell invasion was measured in TRANSWELL® chambers with a coating including MATRIGEL™ (100 μg/ml). The cells in 200 μL serum-free DMEM were placed on the upper chamber and 800 μL iTS CM was added in the lower chamber. After 24 h, the cells that had invaded the lower side of the membrane were stained with Crystal Violet. At least five randomly chosen images were taken under a microscope, and the average number of stained cells that represented the relative invasion was determined.

[2] = tested on: EO771 mammary tumor cells; test: EdU assay; format: cell-based, mouse; details: inhibitor applied with iTS CM
Method: (§2) EdU assays. Two thousand cells were seeded in 96-well plates on day 1, CM was added on day 2, and cellular proliferation was examined using a fluorescence-based cell proliferation kit (CLICK-IT™ EdU ALEXA FLUOR™ 488 Imaging Kit; Thermo-Fisher, Waltham, MA, USA). After fluorescent labeling, the number of fluorescently labeled cells were counted and the ratio to the total number of cells was determined.
(§3) EdU assay. Using a procedure previously reported, approximately 1,000 cells were seeded in 96-well plates on day 1. CM was added on day 2 and cellular proliferation was examined with a fluorescence-based cell proliferation kit (CLICK-IT™ EdU ALEXA FLUOR™ 488 Imaging Kit; Thermo-Fisher, Waltham, MA, USA) on day 4. After fluorescent labeling, the number of fluorescently labeled cells was counted and the ratio to the total number of cells was determined.

[3] = tested on: EO771 mammary tumor cells; test: Tumor selectivity from MTT-based viability (tumor vs non-tumor cells); format: cell-based, mouse; details: tumor cells EO
Description: (§4) Variations in tumor selectivity among the predicted tumor-suppressing proteins. Tumor-suppressing proteins may inhibit the progression of tumor cells but not inhibit the progression of non-tumor cells. Using the MTT-based viability, tumor selectivity was defined as a ratio of (reduction in MTT-based viability of tumor cells) to (reduction in MTT-based viability of non-tumor cells). The tumor selectivity may be above one to remove tumor cells and a larger value may signify a reduction in the inhibition of the growth of non-tumor cells. The tumor selectivity was determined using three tumor cells (4T1.2 mouse mammary tumor cells, EO771 mammary tumor cells, and MDA-MB-231 breast cancer cells) and three non-tumor cells (adipose cells, MLO-A5 osteocytes, and murine MSCs). […] Table 2 provides the tumor selectivity of 4T1.2 Oct4 CM, 4T1.2 c-Myc CM, and 10 tumor-suppressing protein candidates.

adipose-derived MSCs = test: MTT-based viability of non-tumor cells; format: cell-based, human
Description: as §4

4T1.2 cells [4] = test: Western blot analysis; format: cell-based, mouse; details: for level of Kdm3a: 4T1.2 cells; for Lrp5, MMP9, Runx2, TGFβ, and Snail: recombinant protein applied extracellularly to 4T1.2 cells
Method: Western blot analysis. Cultured cells were lysed in a radio-immunoprecipitation assay (RIPA) buffer and proteins were fractionated by 10-15% SDS gels and electro-transferred to polyvinylidene difluoride (PVDF) transfer membranes (Millipore, Billerica, MA, USA). The membrane was incubated overnight with primary antibodies and then with secondary antibodies conjugated with horseradish peroxidase (Cell Signaling, Danvers, MA, USA). Antibodies against c-Myc, Oct4, Sox2, Klf4, Lrp5, Runx2, Snail, TGFβ, Eno1, Eef2, vinculin (Cell Signaling, Danvers, MA, USA), MMP9, NFATc1, cathepsin K (Santa Cruz, Dallas, TX, USA), TRAIL (Novus, Centennial, CO, USA), p53 (Invitrogen, Carlsbad, CA, USA), Hsp90ab1 (Abcam, Cambridge, UK), Kdm3a (Thermo-Fisher Scientific, Waltham, MA, USA) and β-actin as a control (Sigma, St. Louis, MO, USA) were employed. The level of proteins was determined using a SUPERSIGNAL™ west femto maximum sensitivity substrate (Thermo-Fisher Scientific, Waltham, MA, USA), and a luminescent image analyzer (LAS-3000, Fuji Film, Tokyo, Japan) was used to quantify signal intensities.

4T1.2 cells [5] = test: TRANSWELL invasion assay; format: cell-based, mouse
Method: TRANSWELL® invasion assay. In a TRANSWELL® invasion assay, approximately 5×10^4 cells in 200 μL serum-free DMEM were placed on the upper TRANSWELL® chamber (Thermo Fisher Scientific, Waltham, MA, USA) with MATRIGEL™ (100 μg/ml), and 800 μL of CM was added in the lower chamber. After 48 h, the cells that had invaded the lower side of the membrane were stained with Crystal Violet. At least five randomly chosen images were taken, and the average number of stained cells was determined.

[6] = tested on: 4T1.2 mouse mammary tumor cells; test: Tumor selectivity from MTT-based viability (tumor vs non-tumor cells); format: cell-based
Description: as §4

[7] = tested on: MDA-MB-231 breast cancer cells; test: as above; format: cell-based, human
Description: as §4

4T1.2 cells [8] = test: EdU assay; format: cell-based, mouse
Method: as §3

[9] = tested on: EO771 mammary tumor cells; test: Wound-healing scratch assay; format: cell-based, mouse; details: EO771 cells
Method: Two-dimensional motility assay. A wound-healing scratch motility assay was performed to measure 2-dimensional cell motility. Cells were seeded in 12-well plates, after cell attachment, a plastic pipette tip was used to scratch a gap on the cell layer. Images of the cell-free scratch zone were obtained via an inverted microscope at 0 h, and the areas newly occupied with cells were determined 48 h after scratching. The areas were quantified with Image J (National Institutes of Health, Maryland, USA).
Scratch assay. A wound-healing scratch assay was conducted to evaluate 2-dimensional migratory behavior. Approximately 4×10^5 cells were seeded in 12-well plates. After cell attachment, a plastic pipette tip was used to scratch a gap on the cell layer. After the removal of the floating cells, CM was added. Images of the cell-free scratch zone were collected at 0 h, and the areas newly occupied with cells were determined 24-48 h after scratching. The areas were quantified with IMAGE J™ (National Institutes of Health, Bethesda, MD, USA).

[10] = tested on: PANC-1 pancreatic tumor cells; test: TRANSWELL invasion assay; format: cell-based, human; details: PANC-1 cells
Method: as §1

[11] = tested on: PANC-1 pancreatic tumor cells; test: EdU assay; format: cell-based, human; details: PANC-1 cells, EdU-based
Method: as §2

[12] = tested on: TRAMP prostate tumor cells; test: TRANSWELL invasion assay; format: cell-based
Method: as §1

[13] = tested on: TRAMP prostate tumor cells; test: EdU assay; format: cell-based; details: EdU-based
Method: as §2

EO771 tumor cells = test: MTT-based viability; format: cell-based, mouse
EO771 cells = test: Western blot analysis; format: cell-based, mouse
Method: Western blot analysis. Cultured cells were lysed in a radio-immunoprecipitation assay buffer with protease inhibitors (Santa Cruz Biotechnology, Santa Cruz, CA, USA) and phosphatase inhibitors (Calbiochem, Billerica, MA, USA). After cell lysis, proteins were fractionated by 10-15% SDS gels and electro-transferred to polyvinylidene difluoride (“PVDF”) transfer membranes (Millipore, Billerica, MA, USA). After blocking 1 h with a blocking buffer (Bio-Rad), the membrane was incubated overnight with primary antibodies and then with secondary antibodies conjugated with horseradish peroxidase for 45 min (Cell Signaling, Danvers, MA, USA). Antibodies against β-catenin, cleaved-caspase 3, Runx2, Snail, Enolase-1 (Cell Signaling, Danvers, MA, USA), MMP9 (Santa Cruz, Dallas, TX, USA), TRAIL (Novus, Centennial, CO, USA), p53 (Invitrogen, Carlsbad, CA, USA), and β-actin as a control (Sigma, St. Louis, MO, USA), were employed. The level of proteins was determined using a SUPERSIGNAL™ west femto maximum sensitivity substrate (Thermo Scientific, Waltham, MA, USA), and a luminescent image analyzer (LAS-3000, Fuji Film, Tokyo, Japan) was used to quantify signal intensities.

Molecule | Tumor selectivity ([3]; non-tumor cells A5) | Tumor selectivity ([3]; non-tumor cells MSC) | MTT-based viability of non-tumor cells (adipose-derived MSCs) | level of Kdm3a (4T1.2 cells [4]) | Lrp5, MMP9, Runx2, TGFβ, and Snail (4T1.2 cells [4]) | TRANSWELL invasion (4T1.2 cells [5]) | Tumor selectivity ([6]; non-tumor cells A5) | Tumor selectivity ([6]; non-tumor cells MSC) | Tumor selectivity ([7]; non-tumor cells A5) | Tumor selectivity ([7]; non-tumor cells MSC) | EdU-based proliferation (4T1.2 cells [8]) | further results
Nc1cccc2c1C(=O)N(C1CCC(=O)NC1=O)C2=O (centres unmarked) [Pomalidomide] |  |  |  |  |  |  |  |  |  |  |  | inhibitory effect of β-catenin-overexpressing iTS CM on invasion [1]: interfered with the inhibitory effect; inhibitory effect of β-catenin-overexpressing iTS CM on proliferation [2]: interfered with the inhibitory effect
Hsp90ab1: heat shock protein 90 alpha family class B member 1 recombinant protein | 1.55 | 2.65 | elevated | reduced | downregulated | reduced | 1.68 | 2.86 | 1.02 | 1.74 |  | 
B1 | 0.67 | 0.89 |  | reduced | downregulated | reduced | 0.99 | 1.57 | 1.13 | 1.43 | reduced | Tumor selectivity ([3]; non-tumor cells Adipose): 1.27; Tumor selectivity ([6]; non-tumor cells Adipose): 1.43; Tumor selectivity ([7]; non-tumor cells Adipose): 1.88
B2 | 3.29 | 7.34 | elevated | reduced | downregulated | reduced | 1.48 | 3.30 | 3.11 | 6.94 | reduced | scratch-based migration [9]: inhibited; invasion [10]: inhibited; proliferation [11]: inhibited; invasion [12]: inhibited; proliferation [13]: inhibited; MTT-based viability (EO771 tumor cells): significant decrease; expression of MMP9, Runx2, and Snail (EO771 cells): reduced; expression of p53 and TRAIL (EO771 cells): elevated
